Columns and labels:
[1] = molecular target: T1, domain V of β2GPI (β2GPI-DV) (Homo sapiens, UniProt P02749); experiment: Inhibition of binding of isolated domain V of β2GPI to cardiolipin in the absence of antibodies; conditions: in the absence of dimerization antibodies, read-out: concentration at half-maximal inhibition of binding of domain V to cardiolipin
T1 construct: Domain V of β2GPI (residues 244-326), was subcloned into a pET15b vector (Novagen); histidine tag followed by TEV protease site (N, cleaved yes); made in house
T1 sequence (P02749 263-345): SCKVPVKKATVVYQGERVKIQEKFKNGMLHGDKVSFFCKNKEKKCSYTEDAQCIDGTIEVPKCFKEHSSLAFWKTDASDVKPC
Experimental: (§1) Cardiolipin-coated 96 well plates available as part of the ImmunoWELL cardiolipin IgG test kit (GenBio) were blocked with 0.5% of skim milk and 2% BSA in 20 mM Tris, 100 mM NaCl, 2 mM CaCl2, pH 7.4. The assay buffer contained 20 mM Tris, 100 mM NaCl, 2 mM CaCl2, pH 7.4 with 2% BSA and the wash buffer was 20 mM Tris, 100 mM NaCl, 2 mM CaCl2, pH 7.4. When the purified β2GPI (Haematologic Technologies, Inc.) was used in experiments, 27 mM glycine was added to the assay buffer to account for glycine present in the stock solution of β2GPI. β2GPI bound to cardiolipin was detected with peroxidase-conjugated anti-β2GPI antibodies (Cedarlane, CL20021HP, 2 mg/ml) diluted 1:2500. […] The peroxidase activity of the bound antibodies was detected using 2-2′-azino-di-[3-ethylbenzthizzoline]sulfonate (ABTS) chromogenic reagent by measuring OD at 405 nm. […] The fits of the raw data and the titration data points were then normalized to the maximum binding determined from the fit to facilitate comparison.
(§2) For the inhibition studies, increasing concentrations of A1 or A1-A1 were added to a constant amount of β2GPI (50 nM), normal human serum (1%) or β2GPI-DV (130 nM) and incubated for 1 hour at room temperature. […] Then, samples were incubated on wells for an additional 1 hour and, after washing, the bound β2GPI/anti-β2GPI or β2GPI-DV/anti-tag antibody complexes were detected.

[2] = molecular target: T2, β2GPI in normal human serum (Homo sapiens, UniProt P02749); experiment: Inhibition of binding of β2GPI in human serum to cardiolipin in the absence of anti-β2GPI antibodies; conditions: 1% human serum, read-out: concentration of inhibitor at 50% inhibition of β2GPI in serum binding to cardiolipin
T2 construct: pooled normal human serum (Innovative Research); tissue Innovative Research; host or cells: pooled normal human serum
T2 sequence (P02749 20-345): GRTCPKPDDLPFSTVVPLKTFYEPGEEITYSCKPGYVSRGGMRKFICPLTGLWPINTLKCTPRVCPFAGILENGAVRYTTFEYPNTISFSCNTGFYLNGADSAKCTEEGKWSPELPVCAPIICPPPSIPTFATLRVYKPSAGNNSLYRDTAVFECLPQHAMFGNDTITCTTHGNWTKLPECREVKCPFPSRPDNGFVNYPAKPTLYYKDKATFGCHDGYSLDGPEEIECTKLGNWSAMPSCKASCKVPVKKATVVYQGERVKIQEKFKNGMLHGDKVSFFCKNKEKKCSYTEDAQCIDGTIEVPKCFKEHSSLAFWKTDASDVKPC
Experimental: as §1, §2

[3] = molecular target: T3, dimeric β2GPI-DV/anti-tag antibody complexes (Homo sapiens, UniProt P02749); experiment: Inhibition of binding of β2GPI-DV to cardiolipin in the presence of dimerization (anti-tag) antibodies; conditions: 30 nM β2GPI-DV, read-out: half-maximal inhibition of binding of β2GPI-DV to cardiolipin
T3 construct: Domain V of β2GPI (residues 244-326), was subcloned into a pET15b vector (Novagen); histidine tag followed by TEV protease site (N, cleaved yes); made in house
T3 sequence (P02749 263-345): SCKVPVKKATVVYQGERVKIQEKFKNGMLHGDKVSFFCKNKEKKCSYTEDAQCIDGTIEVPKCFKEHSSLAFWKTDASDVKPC
Experimental: (§3) Cardiolipin-coated 96 well plates available as part of the ImmunoWELL cardiolipin IgG test kit (GenBio) were blocked with 0.5% of skim milk and 2% BSA in 20 mM Tris, 100 mM NaCl, 2 mM CaCl2, pH 7.4. The assay buffer contained 20 mM Tris, 100 mM NaCl, 2 mM CaCl2, pH 7.4 with 2% BSA and the wash buffer was 20 mM Tris, 100 mM NaCl, 2 mM CaCl2, pH 7.4. When the purified β2GPI (Haematologic Technologies, Inc.) was used in experiments, 27 mM glycine was added to the assay buffer to account for glycine present in the stock solution of β2GPI. β2GPI bound to cardiolipin was detected with peroxidase-conjugated anti-β2GPI antibodies (Cedarlane, CL20021HP, 2 mg/ml) diluted 1:2500. To detect β2GPI-DV bound to cardiolipin, we used peroxidase-conjugated anti-HA antibody (Abcam, ab1265, 1 mg/ml) directed to HA epitope tag at the N-terminus of β2GPI-DV diluted 1:2500. The peroxidase activity of the bound antibodies was detected using 2-2′-azino-di-[3-ethylbenzthizzoline]sulfonate (ABTS) chromogenic reagent by measuring OD at 405 nm. […] The fits of the raw data and the titration data points were then normalized to the maximum binding determined from the fit to facilitate comparison.
(§4) […] Then, samples were incubated on wells for an additional 1 hour and, after washing, the bound β2GPI/anti-β2GPI or β2GPI-DV/anti-tag antibody complexes were detected.

[4] = molecular target: T4, β2GPI/anti-β2GPI antibody complexes (β2GPI in normal human serum) (Homo sapiens, UniProt P02749); experiment: Inhibition of binding of β2GPI in human serum to cardiolipin in the presence of anti-β2GPI antibodies; conditions: 0.04% human serum, read-out: half-maximal inhibition of binding of β2GPI in serum to cardiolipin
T4 construct: pooled normal human serum (Innovative Research); tissue Innovative Research; host or cells: pooled normal human serum
T4 sequence (P02749 20-345): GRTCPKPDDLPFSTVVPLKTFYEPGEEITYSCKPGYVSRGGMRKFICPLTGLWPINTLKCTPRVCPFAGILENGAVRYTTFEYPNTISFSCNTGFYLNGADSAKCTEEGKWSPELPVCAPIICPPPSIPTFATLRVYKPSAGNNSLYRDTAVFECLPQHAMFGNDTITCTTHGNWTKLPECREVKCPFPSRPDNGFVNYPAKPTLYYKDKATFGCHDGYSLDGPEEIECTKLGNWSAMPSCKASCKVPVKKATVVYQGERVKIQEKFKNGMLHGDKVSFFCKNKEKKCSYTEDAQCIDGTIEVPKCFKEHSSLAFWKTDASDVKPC
Experimental: as §3, §4

[5] = molecular target: T5, β2GPI purified from human plasma (Homo sapiens, UniProt P02749); experiment: Inhibition of binding of purified β2GPI to cardiolipin in the absence of anti-β2GPI antibodies; conditions: in the absence of anti-β2GPI antibodies (FIG. 5)
T5 construct: We used β2GPI purified from human plasma available from Haematologic Technologies, Inc; purchased Haematologic Technologies, Inc; host or cells: human plasma
T5 sequence (P02749 20-345): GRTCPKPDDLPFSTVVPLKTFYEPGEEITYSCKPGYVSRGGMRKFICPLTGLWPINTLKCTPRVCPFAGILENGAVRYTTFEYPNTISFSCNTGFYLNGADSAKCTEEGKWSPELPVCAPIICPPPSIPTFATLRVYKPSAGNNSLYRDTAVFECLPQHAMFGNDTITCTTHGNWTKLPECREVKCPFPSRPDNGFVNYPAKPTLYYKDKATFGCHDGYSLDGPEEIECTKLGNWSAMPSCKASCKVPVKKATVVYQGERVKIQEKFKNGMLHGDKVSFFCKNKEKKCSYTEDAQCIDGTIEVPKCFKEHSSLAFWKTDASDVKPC
Experimental: as §1, §2

[6] = molecular target: T6, β2GPI/anti-β2GPI antibody complexes (β2GPI purified from human plasma) (Homo sapiens, UniProt P02749); experiment: Inhibition of binding of purified β2GPI to cardiolipin in the presence of anti-β2GPI antibodies; conditions: 10 nM purified β2GPI, one-site inhibition fit, read-out: half-maximal inhibition of binding of purified β2GPI to cardiolipin
T6 construct: We used β2GPI purified from human plasma available from Haematologic Technologies, Inc; purchased Haematologic Technologies, Inc; host or cells: human plasma
T6 sequence (P02749 20-345): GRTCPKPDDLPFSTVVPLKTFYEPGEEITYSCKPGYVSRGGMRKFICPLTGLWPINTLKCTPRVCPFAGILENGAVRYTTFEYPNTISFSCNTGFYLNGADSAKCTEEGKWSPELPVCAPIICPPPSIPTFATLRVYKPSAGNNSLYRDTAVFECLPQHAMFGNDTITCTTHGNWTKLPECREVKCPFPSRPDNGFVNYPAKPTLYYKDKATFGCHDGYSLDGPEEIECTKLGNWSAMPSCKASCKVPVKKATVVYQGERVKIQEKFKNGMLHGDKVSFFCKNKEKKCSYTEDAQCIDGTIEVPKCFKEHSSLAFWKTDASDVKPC
Experimental: as §3, §4

[7] = molecular target: T7, domain V of β2GPI (Homo sapiens, UniProt P02749); conditions: Lee et al., Structure 18:366-376, 2010; read-out: affinity of A1 for domain V of β2GPI; cited from earlier work
T7 sequence (P02749 263-345 limits assumed): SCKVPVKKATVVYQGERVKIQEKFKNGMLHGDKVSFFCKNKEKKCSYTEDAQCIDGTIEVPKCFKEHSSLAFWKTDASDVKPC

[8] = Binding of purified β2GPI to cardiolipin-coated surface; set-up: species or system human; conditions: read-out: half-maximal binding of purified β2GPI to cardiolipin
Experimental: as §1
(§5) For the binding studies, 50 μl of increasing concentrations of either β2GPI (Haematologic Technologies, Inc.), pooled normal human serum (Innovative Research), or the purified recombinant β2GPI-DV were applied to wells and incubated for 1 hour at room temperature. […] Then, the samples were applied to cardiolipin, incubated for 1 hour, washed, and bound β2GPI or β2GPI-DV was detected.

[9] = Binding of β2GPI in normal human serum to cardiolipin-coated surface
Experimental: as §1, §5

[10] = Binding of β2GPI-DV to cardiolipin-coated surface; conditions: read-out: binding of β2GPI-DV to cardiolipin, one-site model fit
Experimental: as §1, §5

[11] = in the absence of anti-β2GPI antibodies
[12] = in the presence of anti-β2GPI antibodies

Molecule “A1: Monomeric first LA module, fragment of mouse ApoER2 (residues 12-47 of the mature protein)” has an IC50 [1] of 188 ± 44 µM, an IC50 [2] of 176 ± 37 µM and an IC50 [3] of 204 ± 33 µM. For the same molecule, the IC50 [4] was 218 ± 21 µM, the “inhibition of binding of purified β2GPI to cardiolipin” value [5] was “only weakly inhibited” and the IC50 [6] was 191 ± 34 µM. The Kd [7] was 1000 µM.

B1: A1-A1: Dimeric inhibitor: two A1 (LA) modules from ApoER2 connected by a flexible Gly-Ser-Ser-Gly linker, SEQ ID NO: 1 (protein)
chain: AECEEDQFRCRNERCIPLVWRCDEDNDCSDNSDEDDCGSSGCEEDQFRCRNERCIPLVWRCDEDNDCSDNSDEDDCEA
In the case of B1, the “inhibition of binding of purified β2GPI to cardiolipin” value [5] is reported as “only weakly inhibited”.

B2: β2GPI: Beta2-glycoprotein I, in pooled normal human serum or purified from human plasma (Haematologic Technologies, Inc.) (protein)
chain: GRTCPKPDDLPFSTVVPLKTFYEPGEEITYSCKPGYVSRGGMRKFICPLTGLWPINTLKCTPRVCPFAGILENGAVRYTTFEYPNTISFSCNTGFYLNGADSAKCTEEGKWSPELPVCAPIICPPPSIPTFATLRVYKPSAGNNSLYRDTAVFECLPQHAMFGNDTITCTTHGNWTKLPECREVKCPFPSRPDNGFVNYPAKPTLYYKDKATFGCHDGYSLDGPEEIECTKLGNWSAMPSCKASCKVPVKKATVVYQGERVKIQEKFKNGMLHGDKVSFFCKNKEKKCSYTEDAQCIDGTIEVPKCFKEHSSLAFWKTDASDVKPC
With B2 the EC50 [8, 11] was 0.043 ± 0.004 µM, the EC50 [8, 12] was 0.0024 ± 0.0004 µM and the “half-maximal binding of β2GPI in serum to cardiolipin” value [9, 11] was 0.40±0.05 % of serum. The “half-maximal binding of β2GPI in serum to cardiolipin” value [9, 12] was 0.028±0.004 % of serum.

B3: β2GPI-DV: Recombinant isolated domain V of β2GPI (residues 244-326), with an N-terminal HA tag in the binding assays (protein)
chain: YPYDVPDYASCKVPVKKATVVYQGERVKIQEKFKNGMLHGDKVSFFCKNKEKKCSYTEDAQCIDGTIEVPKCFKEHSSLAFWKTDASDVKPC
For B3, the EC50 ([10]; in the absence of anti-tag antibodies) was 0.112 ± 0.021 µM and the EC50 ([10]; in the presence of anti-tag antibodies) was 0.019 ± 0.001 µM.
